Experimental data from the RNAGym collection of RNA variant scans (doi:10.1073/pnas.2313332121).

B1: TPR t1 (parent)
chain: GACCAAUCUGCCCUCAGAGCUCGAGAACAUCUUCGGAUGCAGAGGAGGCAGGCUUCGGUGGCGCGAUAGCGCCAACGUCCUCAACCUCCAAUGCAUCCCACCACAUGAUGAUGCCUGAAGAGCCUUGGUUUUUUG

Variants of: B1
Assay: polymerase ribozyme fitness, log enrichment relative to wild type (log ratio); higher = more active; in vitro selection for triplet polymerase activity
How it was run: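 Both subunits of a heterodimeric triplet polymerase ribozyme were given their own mutant library, built by PCR and transcribed. Each library was annealed with a biotinylated primer, the partner subunit and triplets, incubated frozen at −7 °C, and its extended constructs gel-excised, captured on streptavidin beads and amplified by RT-PCR, all in one round done in triplicate. Fitness is the logarithm of genotype enrichment relative to wild-type enrichment, with replicates averaged by inverse-variance weighting. That logarithm is base 2, and Illumina-sequenced genotypes needed ≥10 input reads and ≥1 read per output.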

Row | Variant | polymerase ribozyme fitness (log ratio)
1 | C34U C115U | -5.45
2 | U32A C34G | -6.88
3 | G35C C76G C99G A100C U112A G120A | -6.53
4 | G36A G127U U133G | -3.26
5 | G35A G71A | -4.49
6 | G36C C40A C62U C72U | -4.22
7 | G35A C49A G60U C86U C89A | -7.46
8 | G36A G58C U116G | -3.49
9 | U33G C70U U78G | -6.53
10 | U33G U54G G58C A74G G120C | -5.75
11 | U32G C72U C102U G113A | -7.34
12 | G36A G52A A66G | -2.6
13 | U33G C64U U112G | -6.48
14 | C34A A50G G113U G120C | -6.31
15 | C34U A50C C70G C79G C89A C102G C124U | -6.39
16 | G36A A37G C70A | -3.19
17 | C34U C79U U130C | -5.4
18 | G36A A121C | 0.979
19 | C34A G65U C82G A111G U116G | -6.99
20 | G36A G48A U112A U131C | 0.386
21 | G35C G61C C64A C123G | -6.08

Row | Variant | polymerase ribozyme fitness (log ratio)
22 | C34A C89A | -5.68
23 | C34A C89U | -4.08
24 | U32C C53U A103C | -4.2
25 | C34G G63C | -6.66
26 | G36A C40A C56U G110A U116A C124A U125G | -7.28
27 | G35U C64G C97G G117C | -7.13
28 | C34G G44A | -6.88
29 | U32C G71A C73U | -1.78
30 | C34A G35A C86G U112C | -4.41
31 | U32C C99U | -2.13
32 | U32C G47U G48U C76U U112G | -4.6
33 | U32C G52U G77U C79A A90G C115U U126A | -5.37
34 | G36C A68G C79G C98U C115U C124U | -6.44
35 | G35U A75U C124A | -4.78
36 | C34U G77A | -5.22
37 | U33C C64U | -3.44
38 | C34U C72U A105G G120A | -6.01
39 | C34A C56A G93A C97U | -4.7
40 | C34G A83C | -4.9
41 | G36C A91C | -1.87
42 | U32C G113U | -2.9

Row | Variant | polymerase ribozyme fitness (log ratio)
43 | C31U U112G | -4.94
44 | U33C C124A | -2.98
45 | U32C C40G G57U G117C G120A | -6.56
46 | C34G C82U | -6.19
47 | C34U C72G | -2.99
48 | G35C U59G C76A C98A | -5.8
49 | G36A A121U U133A | 1.79
50 | G36A G61C | -2.63
51 | C34A C73A | -2.46
52 | G35A C94G C123G U129C | -5.78
53 | G36C C70G G110C U129G | -5.33
54 | C31U U59G C73U | -5.82
55 | C34A A68G A100C C123U | -5.6
56 | G35A C64U A103C G120A | -5.9
57 | C34U C56A G71C U112A | -6.49
58 | U32C C49U C53U A75G A83C C99U | -5.45
59 | C34A G127C | -3.8
60 | C34A G113C | -5.75
61 | C34A G113A | -4.03
62 | G36A C89A | -2.49
63 | C31U U78G C101G C104A G110A | -5.57

Row | Variant | polymerase ribozyme fitness (log ratio)
64 | G36A G44A G61U G77U A84U | -3.54
65 | C34A G63C A100C C104A | -6.04
66 | C34A U109C | -6.24
67 | C34U A74U | -4.36
68 | C31U G47U | -6.27
69 | U33A C72U | -4.34
70 | G36A G71U | -0.815
71 | C34A C72G G107U U109G A121G | -5.86
72 | G36A C86G | -2.04
73 | G35U G42A | -6.8
74 | C31U U54G U59C A103C A111C | -5.45
75 | C34A C56G G117A | -5.64
76 | U32A G48U G58A C123U | -4.55
77 | G36A C56U | -0.261
78 | C34A U112A | -1.81
79 | G36C G44C C73U G110C C124U U125A | -4.74
80 | C34U U78C | -4.25
81 | C34U U78A | -4.78
82 | C34U G57A G107A U109A U116G | -6.43
83 | U32A U33C A121U G135A | -4.41
84 | U33A G36U | -4.74
